assay: yeast display, Sf9 membrane polyspecificity reagent, FACS + sequencing; frameworks hold sequencing errors
Summary of the method: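 Genes from sorted yeast were amplified by colony PCR, read by MiSeq 2 × 250 sequencing and filtered on CDR length. These cells carried a synthetic nanobody library in Saccharomyces cerevisiae BJ5465 and were sorted by FACS into low and high (top ~1%) gates on anti-HA and streptavidin fluorescence. Polyreactivity is labelled according to the gate of origin.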

| Sequence | polyreactivity (PSR sort gate) |
| --- | --- |
| QVHLVESGGGLVQAGGSLRLSSAASGSTFDYYAMGWYRQAPGKERELVAAISVGGGGTTYADSVKGRFTISRDNAKNTVYFQMNCLNPEDTAVYYCAARYRTRKRPGSKYYYWGQGTQVTVSS | high polyreactivity |
| QVHLVESGGGLVQAGGSLRLTCAASGSIFTVYALGWYRQAPGKERELVAAITRNGGRTYYADSVKGRFTISRDNAKNTVYLQMNSLIPEDTAGYYCAAPGLYSRLDYWGQGTQVTVSS | high polyreactivity |
| QVHLVESGGGLVQAGGSLRLTCAASGSTFASNVMGWYRQAPGKERELVAAISRRGTRTNYADSVKGRFTISLDNAKNTVYLQMKSLKPEDTAVYYCNTASGTNVVYEFGYWGQGTQVTVSS | high polyreactivity |
| QVHLVESGGGLVQAGGSLSLSCAASGRNFRAYAMGWYRQAPGKETEFVAAISRSGGSTYYADSVKGRFTISRDYAKNTVYLQMHSLKPVDTAVYYCAARVRYPYRYYYWGQGTQVTVSS | high polyreactivity |
| QVHLVESGGGLVQAGGSRRLSCAASGRIFSRYTMGCYRQAPGKERELVAVNTSGGSTNYADSVKGRFTISRDNAKNTVYLQMNSLKPEDTAVYYCNAVRFTYGGYLRRYDYWGQGTQVTVSS | high polyreactivity |
| QVHLVESGGGLVQAGRSLRFSCAASGSIFGVNTMGWYRQAPGKERELDAGISSSGSSTYYADSVKGRFTISRDNAKNTVYLQMNSLKPEDTAVYDCAVRPRYYSTNMDSWGQGTQVTVSS | low polyreactivity |
| QVHLVESGGGLVQAGRTLRLICAASGFIFWRNTMGWYRQAPGKERELVAVITRGGSTYYADSVKGRFTLSRDNAKNTGYLQMNSLKPEDTAVYYCAARNDYYKTFSGYDYWGQGTQVTVSS | low polyreactivity |
| QVHLVESGGGLVQARGSLRLSCAASGITFRYYTMGLYRQAPVKERELVAVISWSGGSTYYADSVKGRFTISRDNAKNTVYFQMNSLKPEDTAVYYCAAVRRISRYDYWGQGTQVTVSS | high polyreactivity |
| QVHLVESGGGLVQARGSLRLSCAASGSTIYSYARGWYRQAPGKERELVAAINRSAGSTYYADSVKGRFTISRDNAKNTVYLQMTSLKPEDTAVYYCAAYASRSYGDWGQGTQVTVSS | high polyreactivity |
| QVHLVESGGGLVQARGTRRLSCAASGYTFPRYTMGWYRQAPGKERELVAAISGSSGSTYYADSVTGRFTISRDNATNTVYLQLNSLKPEDTAVYYCNKYYGFHKIKEYDYWGQGTQGTVSS | high polyreactivity |
| QVHLVESGGGLVQAVVSLRLSCAASGTTFVSYAMGWYRHATGKERELVAGISWSGTRTYYADSVKGRFTISRDNAMNTVYLQMNSLKPEDSAVYYCNAVYIYNYRTLDYWGQGTQVTVSS | high polyreactivity |
| QVHLVESGGGLVQPGGSLRLSCAASGSTFQTYAMVWYRQAPGKERELVAAITSGGSTNYADSVKGRFTISRDNAKNTVYLQMNSVYPEVTAVYFCAVRQIYQTSDHRLQYDYWGQGTQVTVSS | low polyreactivity |
| QVHLVESGGGVVQAGGSLRLSCAASGRIFHRYEMGWYRQAPVKERELVAAINWRTGNTYYADSVKGRFTISRDNAKNTVYLQMNSLKAEDTAVYYCNARYRSDYWGIQYDYWGQGTQVTVSS | high polyreactivity |
| QVHLVESGGPLVQAGGSLRLSCAASGRIFQINAMVWYRQAPGKERELVAGITGSGGSTDYADSVKGRFTISRDKSKNTVYLQMNSLKPEDTAVYYCAADTYTDGYDYWGQGTQVTVSS | low polyreactivity |
| QVHLVESGGVLVQAGGSLRLSCAAYGSTFSWNAMGWYRQSPWKESELVAPITTRGGSTYYADSVKGRFTISRDNAQNTVYLEMNSLKPEDTAVYDCAASYGYRGGWGPGVDYWGQCTQVTVSS | low polyreactivity |
| QVHLVESGRGLFQAGGSLRLSCAASGRIFPGYAMGWSRQAPGKESELVAGITWRTARTYYAYSVKGRFTISRDIAKNTVYLQMNSLKPEDTAVYYCAAKYARYGRDVIFDYWGQGTEVTVSS | high polyreactivity |
| QVHLVESGRGLLQAGGSLRLSCAPSGRTFGVYSMGWYSQAPGKERELVAAISWSGDRTYYADSVKGRFTISRDYAKNTVYLQMNSLKPEDPALDYAEYHGAKYDYWGQGTQVTVSS | high polyreactivity |
| QVHLVESRGGLIQAGGSLRLSCAASGSLYVYNALGWYRQAPGKERELVAGITFIGGSTYYADSVKGRFTISRDNAKNTVYLQMNSLKPEDTAVCYSNADVAPGIFYGYDSWGQGTQVTVSS | low polyreactivity |
| QVHLVESRGGLVQAGGSLRLSCAASGRPFNPYAMGWYRQAPGKEREFVYADSVKGRFTISRDNAKNTVYLQMNSLKPEDTAVYYCAADVYPDTLHPYNYDYWGQGTQVTVSS | low polyreactivity |
| QVHLVESVGGLVQAGGSLRLSCAASGIIFNDYAMGWYRQAPGKERELVATISWSGGSTYADSVKGRFTISRDNAKNTVYLQMNSLNPEDTAVYYCNADLGSSYDWGQGTQGTVSS | low polyreactivity |
| QVHLVESVGGLVQAGGSLSLSCAASGLIFDGYAMGWYRQAPGKERDLVAAITWRGGRTYADSVKGRFTISRDNAKNTVYLQMNSLQPEVTAVYYCAVRRWGTSFVEDDYWGQGTQVTVSS | low polyreactivity |
| QVHLVESWAGLVQAGGSLRLSGAASGTNVMGWYRQAPGKERELDAAISGSGGSTYYADSVKGRFTISRDNAKNTVYLQMNSLKPEDTAVYYCAADSIQYTARPYDYWGQGTQVTVSS | low polyreactivity |

| Sequence | polyreactivity (PSR sort gate) |
| --- | --- |
| QVHLVETGGGLVQAGGSLRLSCAASGSIFVSNAKGWYRQAPGKERELVAAISQSGGSTYYADSVKGRFTISRDYAKNTVYLQMNSLKPEDTAVYYCATPIRSGFRIYDYWGQGTQVTVSS | low polyreactivity |
| QVHLVETGGGLVQEGGSLRLSCAASGSIFYYNAMGWYRQATGKETELVAAITSSGGSTYADSVKGRFTISRDNAKNTVYLQMNSLKPEDTAVYYCATVAHGLWSGSGYIYAYDYWGQGTQVTVSS | low polyreactivity |
| QVHLVQSGGGLVQAGGSLRLSCAASGSIYVAYEMGWYRQAPGKERELVAAINFDGTSTYYADSVKGRFTISRDNAKNTVYLQMNSLKPEDTAVYYCNKRVSPTYKGQYDYWGQGTQVTVSS | low polyreactivity |
| QVHLVVSGGGLVQEGGSLSLRWAASGSTFEYYGMGWYTQAPGKERELVAAITVSGGSTYYADSVKGRFTISRDNEKNTVYLQIHSLKPEDSAVCYCAARPILYWYFRFDYWGQGTQVTVSS | low polyreactivity |
| QVHRVESGGGLVQAGGSLRLSCAASGIIFARYAMGWYRPAPGKERELVAAITRRAVSTYYADSVKGRFTITRDNAKNSVYLQLISLKPEDTAVYYCAADRASYFTYAYGYWGQGTQVTVSS | high polyreactivity |
| QVHVVESGGGLVQAGGSLRLSCAASGFTFGNNAIGWYRQAPGKERELVAGISRTGGRTYYADSVKGRFTISRDNAMNTVFLPMNSLKPEDTAVFYCAKAFRGHYWGQGTQVNVSS | high polyreactivity |
| QVHVVESGGGLVQAGGSLRLSCAASGSSFYHYAMGWYRQAPGKERELVAAISGSGGSTYYADSVKGRFTISRDNAKNTVYLQMNSLKPEDTAVYYCAADTSRYHYTRYFFDSDYWGQGTQVTVSS | low polyreactivity |
| QVKHVESGGGLVQAGGSLRLTCAASGRTFDRYARGWCRQAPGKDRQLVASISWTGGSPYYADSVKGRFTISRDNAKNTVYLQMNSLKPEVTAVYYCAVRFDYWGQGTQVTVSS | low polyreactivity |
| QVKLEESGGGLVQAGGSLRLTCAASGSTFTYYAMGWYRQAPGKERELVAAITFRGDSTYYADSVKGRFTFSRDNAKNTVYLQMNSLKPEDTAVYYWGQGTQVTVSS | low polyreactivity |
| QVKLHESGGGLVQAGDSQRLSCAASGNIFRFTDMGWSRQAPRKERELVAAINAGSTTYYADSVKGRFTISRDNAKNTVYLQKNSLKPEDTAVYYWAVYYLGSGTFGYWGQGAQVTVSS | high polyreactivity |
| QVKLLESGGGLVQAGGSLRLTCAASGSTFPPYAMGWYRQAPGTESELVAAISYRDTGTYYADSVKGRFTISRDNAKYTVYLQMNSLKPEDTAVYYCATLGYFSASRTDYDYWGQGTQVTVSS | low polyreactivity |
| QVKLQESGGGLVQAGGSLRLSCAASGNISVTGFMGWYRQAPGKERELVASIGIGGTTYYADSVKGRFSISRDNANNTLYLQMNSLKPEDTAVYYCAARYLYYAYSYWGQGTQVTVSS | low polyreactivity |
| QVKLVESGAGLVQAGGSLRLSCAASALSFYYYAMGWYRQAPGKERELVASITGGDSTNYADSVKGRFTISRDNAKNTVYLQMNSLKPEETAVYYCADEFYVSSYGYRTYDYYYWGQGTQVTVSS | low polyreactivity |
| QVKLVESGAGVVQAGGSLRLSCAACGRIFLKYAMGWYRQAPGKERELVAAITSGGGRTSYADSVKGRFTISRDNAKNTVYLQMNSLKPEDTAVYYCNAPAYWRYILRGSAYDYWGQGTQVTVSS | high polyreactivity |
| QVKLVESGGGFLQAGGRLRLSCAASGIIFYYYAMGRYRQAPGKERELVAAISSGGSTYYSDSVKGRFTISRDNAMNTVYLQMNSLKPEDTAVYYCAADPLYTIDIEYSTYGDYDYWGQGTQVTVSS | low polyreactivity |
| QVKLVESGGGLVQAGGSLRISSAASGSTFYYYAMGWYRQAPGKESEFVASISSRGTSKYYADSVKGRFTISRDNAKNTVYLQMNSLKPEDTAVYYCAARGWCPTRAYDYWGQGTQVTVSS | high polyreactivity |
| QVKLVESGGGLVQAGGSLRLSCAASGFIFAHYAMGWYRQAPGKERELVAAIRGGDGSTDYADSVKGRFTISRDNAKNTVYLQMNSLIPEDTAVYYCAKRGKRSRGVGGNYWGQGTQVTVSS | low polyreactivity |
| QVKLVESGGGLVQAGGSLRLSCAASGFILGYYAMGWYRQAPGKERELVASISRRGGSTYYADSVKGRFTISRDNAKNTVYLQMNSLKPEDTAVYYCAASGYGRYPPYEYWGQGTQVTVSS | high polyreactivity |
| QVKLVESGGGLVQAGGSLRLSCAASGFTFNGYGMGWYRQAPGKERELVAAISRSSGGTYYADSVKGRFTISRDNAKNTVYLQMNSLKPVDTAVYYCAATGYRTATPSWRYYYWGQGSQVTVSS | high polyreactivity |
| QVKLVESGGGLVQAGGSLRLSCAASGFTFSRNTRGWYRQAPGKERELVAAIDSTGGSTYYADSEKGRFTISRDNAKNTVYLQMNCLNPEDTAVYYCATVLPDGRVRLRILWGKRVWYDYWGQGTHVTVSS | low polyreactivity |
| QVKLVESGGGLVQAGGSLRLSCAASGFTIQRYAMGWYRQAPGKERELVAAITSGGSTYYADSVKGRFTISRDNAKNTVYLQMNSLKPEDTAVYYCATRAVWSSWGRRYDSWGQGTQVTVSS | high polyreactivity |
